According to PMC3958868, “The Proteasome Activator PA28γ, a Negative Regulator of p53, Is Transcriptionally Up-Regulated by p53”:

B1: RE1 wild-type (dsDNA)
DNA 1: TTACATGTTGAAATACTTGTAT
DNA 2: ATACAAGTATTTCAACATGTAA
B2: RE1 mutant (dsDNA)
DNA 1: TTATCGCTTGAAATACTTGTAT
DNA 2: ATACAAGTATTTCAAGCGATAA
B3: RE2 wild-type (dsDNA)
DNA 1: GTGCATGAAGAGGTATAGTCTCATGCTT
DNA 2: AAGCATGAGACTATACCTCTTCATGCAC
B4: RE2 mutant (dsDNA)
DNA 1: GTGTCGCAAGAGGTATAGTCTCATGCTT
DNA 2: AAGCATGAGACTATACCTCTTGCGACAC

Molecular target: p53 (UniProt P04637 1-393)
Assay: biotinylated DNA pull-down, western blot; 10 mM Tris-HCl pH 8.0, 40 mM KCl, 1 mM DTT, 6% glycerol, 0.05% NP-40; overnight at 4 °C; 20 µg p53, 1 µg biotinylated oligo; beads washed with Tris-EDTA (100 mM NaCl), binding buffer, PBS
Details: protein: recombinant; chain copies: 4; label: biotin

Sequence of p53 (P04637 whole entry): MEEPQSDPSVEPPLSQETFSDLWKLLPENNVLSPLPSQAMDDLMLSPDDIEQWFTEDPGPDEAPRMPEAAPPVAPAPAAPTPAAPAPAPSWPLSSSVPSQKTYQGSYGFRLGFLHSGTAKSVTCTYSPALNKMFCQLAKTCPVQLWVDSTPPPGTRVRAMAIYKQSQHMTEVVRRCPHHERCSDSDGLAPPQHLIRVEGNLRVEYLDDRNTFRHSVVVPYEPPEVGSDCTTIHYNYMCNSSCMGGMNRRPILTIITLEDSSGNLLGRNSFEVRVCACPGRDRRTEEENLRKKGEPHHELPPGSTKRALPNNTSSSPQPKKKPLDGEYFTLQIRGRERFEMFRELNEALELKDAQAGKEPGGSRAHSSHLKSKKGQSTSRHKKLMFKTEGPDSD

Binder | binding result
B1 | binds
B2 | no binding
B3 | binds
B4 | no binding
